Experimental data reported in patent publication US20240285753A1 (DUKE UNIVERSITY, published 2024).
Substitutions are numbered along the chain they refer to. Where two headings read alike, the source gives them in different places.

How the values were obtained:
[1] = target: T1, S2hlx-Ex8-Trx; test: SPR, mAb captured, scaffold as analyte
T1 chain: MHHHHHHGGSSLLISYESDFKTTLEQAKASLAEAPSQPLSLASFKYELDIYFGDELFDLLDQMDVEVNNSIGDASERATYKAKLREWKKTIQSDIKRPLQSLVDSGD

[2] = target: T2, S2hlx-Ex54; test: SPR, mAb captured, scaffold as analyte
T2 chain: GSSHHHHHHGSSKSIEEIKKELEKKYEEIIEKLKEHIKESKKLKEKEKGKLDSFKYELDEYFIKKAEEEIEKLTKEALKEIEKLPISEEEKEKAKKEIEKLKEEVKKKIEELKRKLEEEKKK

[3] = target: T3, S2hlx-Ex37; test: SPR, mAb captured, scaffold as analyte
T3 chain: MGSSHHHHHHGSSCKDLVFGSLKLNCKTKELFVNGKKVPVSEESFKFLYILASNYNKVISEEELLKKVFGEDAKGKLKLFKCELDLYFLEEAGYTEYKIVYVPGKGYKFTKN

[4] = target: T4, S2hlx-Ex34; test: SPR, mAb captured, scaffold as analyte
T4 chain: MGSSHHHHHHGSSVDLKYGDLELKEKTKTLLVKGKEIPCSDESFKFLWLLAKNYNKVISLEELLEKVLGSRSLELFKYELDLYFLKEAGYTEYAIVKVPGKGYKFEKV

[5] = target: T5, S2hlx-Ex25; test: SPR, mAb captured, scaffold as analyte
T5 chain: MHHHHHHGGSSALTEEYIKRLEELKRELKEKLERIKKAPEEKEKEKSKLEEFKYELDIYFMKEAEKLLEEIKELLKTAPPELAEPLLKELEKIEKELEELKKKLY

[6] = target: T6, S2hlx-15; test: SPR, mAb captured, scaffold as analyte
T6 chain: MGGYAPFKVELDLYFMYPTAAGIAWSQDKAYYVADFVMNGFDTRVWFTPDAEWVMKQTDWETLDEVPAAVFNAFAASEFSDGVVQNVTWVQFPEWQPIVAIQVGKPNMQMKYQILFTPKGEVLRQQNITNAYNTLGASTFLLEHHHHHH

[7] = target: HKU-1 spike (2P) (human coronavirus HKU1); test: ELISA, coated spike, mAb titrated
[8] = target: T1, S2hlx-Ex8-Trx; test: SPR, mAb captured, antigen as analyte
[9] = target: T4, S2hlx-Ex34; test: SPR, mAb captured, antigen as analyte
[10] = target: T7, S2hlx-Ex34 L1145A; test: ELISA; antigen coated, mAb titrated
T7 epitope scaffold: T4 chain with L73A

[11] = target: T8, S2hlx-Ex34 F1148A; test: ELISA; antigen coated, mAb titrated
T8 epitope scaffold: T4 chain with F76A

[12] = target: T4, S2hlx-Ex34; test: ELISA; antigen coated, mAb titrated
[13] = target: T9, S2hlx-Ex15; test: SPR, mAb captured, antigen as analyte
T9 chain: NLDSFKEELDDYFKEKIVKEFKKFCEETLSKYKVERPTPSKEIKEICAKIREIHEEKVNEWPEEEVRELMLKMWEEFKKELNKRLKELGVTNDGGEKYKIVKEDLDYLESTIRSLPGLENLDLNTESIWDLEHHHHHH

[14] = target: T10, S2hlx-Ex20; test: SPR, mAb captured, antigen as analyte
T10 chain: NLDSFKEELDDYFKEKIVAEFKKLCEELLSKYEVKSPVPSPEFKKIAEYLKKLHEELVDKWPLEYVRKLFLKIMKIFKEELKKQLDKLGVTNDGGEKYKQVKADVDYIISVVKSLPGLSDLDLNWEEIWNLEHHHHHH

[15] = target: T11, S2hlx-Ex17; test: SPR, mAb captured, antigen as analyte
T11 chain: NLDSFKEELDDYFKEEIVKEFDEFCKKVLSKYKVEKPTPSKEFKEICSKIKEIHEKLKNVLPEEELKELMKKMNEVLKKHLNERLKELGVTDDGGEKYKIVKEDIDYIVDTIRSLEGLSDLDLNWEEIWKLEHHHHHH

[16] = target: S2hlx-4; test: SPR, mAb captured, antigen as analyte
S2hlx-4, sequence (chain, as listed by the source): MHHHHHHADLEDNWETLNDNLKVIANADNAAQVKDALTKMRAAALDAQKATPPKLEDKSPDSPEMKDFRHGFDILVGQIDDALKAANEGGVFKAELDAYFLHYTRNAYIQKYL

[17] = target: T12, S2hlx-1; test: SPR, mAb captured, antigen as analyte
T12 epitope scaffold: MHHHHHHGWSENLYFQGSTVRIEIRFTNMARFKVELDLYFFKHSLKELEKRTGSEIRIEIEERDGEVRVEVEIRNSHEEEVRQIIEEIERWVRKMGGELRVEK

[18] = target: S2hlx-14; test: SPR, mAb captured, antigen as analyte
[19] = target: T13, S2hlx-13; test: SPR, mAb captured, antigen as analyte
T13 epitope scaffold: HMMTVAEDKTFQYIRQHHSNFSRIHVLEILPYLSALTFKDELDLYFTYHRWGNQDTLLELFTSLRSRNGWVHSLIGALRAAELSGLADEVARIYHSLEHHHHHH

[20] = target: T14, S2hlx-8; test: SPR, mAb captured, antigen as analyte
T14 epitope scaffold: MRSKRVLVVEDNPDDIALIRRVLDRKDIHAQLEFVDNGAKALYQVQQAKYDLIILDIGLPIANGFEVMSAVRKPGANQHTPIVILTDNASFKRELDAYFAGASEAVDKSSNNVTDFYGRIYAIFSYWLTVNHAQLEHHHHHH

[21] = target: T12, S2hlx-1; test: SPR, mAb captured, antigen as analyte
[22] = target: S2hlx-14; test: SPR, mAb captured, antigen as analyte; remark: listed apart in the source
[23] = target: T13, S2hlx-13; test: SPR, mAb captured, antigen as analyte
[24] = target: T14, S2hlx-8; test: SPR, mAb captured, antigen as analyte

B1: S2P6 mAb (antibody, V domains shown)
VH: EVQLVQSGAEVKKPGASVKVSCKASGYTFTSQYMHWVRQAPGQGLEWIGIINPSGVHTSYAQKFQGRVTLTRDTSTSTLYMELSSLRSEDTAVYYCARGSPKGAFDYWGQGTLVTVSS
VL: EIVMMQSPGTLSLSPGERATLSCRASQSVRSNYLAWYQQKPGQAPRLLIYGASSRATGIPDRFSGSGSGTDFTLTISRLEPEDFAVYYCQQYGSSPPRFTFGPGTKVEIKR
[1]
  Kd: 0.33 µM
[2]
  Kd: 0.045 µM
[3]
  Kd: 0.664 µM
[4]
  Kd: 0.082 µM
[5]
  Kd: 0.612 µM
[6]
  Kd: 0.0007 µM
[7]
  EC50 (read off the curve): ~0.3 mg/L
[8]
  Kd: 0.568 µM
[9]
  Kd: 0.143 µM
[10]
  EC50 (read off the curve): ~0.02 mg/L
[11]
  EC50 (read off the curve): ~0.09 mg/L
[12]
  EC50 (read off the curve): ~0.02 mg/L
[13]
  Kd: 0.004 µM
[14]
  Kd: 0.0107 µM
[15]
  Kd: 0.0296 µM
[16]
  Kd: 0.0477 µM
[17]
  Kd: 0.0528 µM
[18]
  Kd: 0.03 µM
[19]
  Kd: 0.083 µM
[20]
  Kd: 0.063 µM
[21]
  Kd: 0.0528 µM
[22]
  Kd: 0.03 µM
[23]
  Kd: 0.083 µM
[24]
  Kd: 0.063 µM
